Measurements as given in paper PMC3347535, “D-Arabinose Methabolism: Characterization of Bifunctional Arabinokinase/Pyrophosphorylase of Leishmania major” (Acta Naturae, 2009).

System: O=P(O)(O)OC1OC[C@@H](O)[C@@H](O)[C@@H]1O
Test: purified protein
Settings: GDP-D-Arap pyrophosphorylase reaction; GTP co-substrate; exogenous arabinose phosphate; kinetic assay conditions not given

With LmjF16.0480 (Leishmania major) the Km was 67.0 mM.
